Assay results published in patent publication WO2021212049A2.

Target: recombinant SARS-CoV-2 S protein ectodomain (residues 14-1211), 2P, furin site mutated, foldon, 8XHis (SARS-CoV-2) (UniProt P0DTC2)
Assay: ELISA on coated antigen, anti-human IgG-HRP

mAb 2B04 (antibody) was tested, and the minimum positive concentration was less than 5 µg/mL.
